Results: patent US10294487B2, “Methods and compositions involving ALS variants with native substrate preference” (E I DU PONT DE NEMOURS AND COMPANY, priority 2012, dated 2019)

Columns and labels:
G. max ALS1 protein [1] = assay: Colorimetric ALS kinetic assay (Km, kcat) with pyruvate as substrate; type: biochemical, Glycine max
Outline: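 Recombinant soybean ALS variants, mature N-terminus from S48, His-MBP tag cleaved off; 0.8 ug enzyme per well in 25 mM potassium phosphate, 15 mM MgCl2, 0.7 mM TPP, 28 uM FAD, 0.2 mg/ml BSA, 0-100 mM pyruvate. Km and Vmax from hyperbolic fit; kcat from Vmax and protein concentration.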

G. max ALS1 protein [2] = assay: Substrate specificity ratio (Rf), pyruvate versus 2-ketobutyrate, LC-MS of reduced products; type: biochemical, Glycine max; settings: ratio of [pyruvate] to [2-ketobutyrate] giving equal rates of acetolactate and acetohydroxybutyrate formation; 25 mM pyruvate
Outline: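 Pyruvate was held at 25 mM while 2-ketobutyrate was varied. Reactions were quenched with sodium borohydride, and the reduced acetolactate and acetohydroxybutyrate were separated on C18 with a methanol gradient and quantified by MS integration. Rf is the [pyruvate]/[2-ketobutyrate] ratio that gives equal formation rates of both products.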

B1: GM-ALS_P178S_A186V: Glycine Max ALS1 with P→S at position 178 and A→V at position 186 (protein)
chain: MAATASRTTRFSSSSSHPTFPKRITRSTLPLSHQTLTKPNHALKIKCSISKPPTAAPFTKEAPTTEPFVSRFASGEPRKGADILVEALERQGVTTVFAYPGGASMEIHQALTRSAAIRNVLPRHEQGGVFAAEGYARSSGLPGVCIATSGPGATNLVSGLADALMDSVPVVAITGQVSRRMIGTDVFQETPIVEVSRSITKHNYLILDVDDIPRVVAEAFFVATSGRPGPVLIDIPKDVQQQLAVPNWDEPVNLPGYLARLPRPPAEAQLEHIVRLIMEAQKPVLYVGGGSLNSSAELRRFVELTGIPVASTLMGLGTFPIGDEYSLQMLGMHGTVYANYAVDNSDLLLAFGVRFDDRVTGKLEAFASRAKIVHIDIDSAEIGKNKQAHVSVCADLKLALKGINMILEEKGVEGKFDLGGWREEINVQKHKFPLGYKTFQDAISPQHAIEVLDELTNGDAIVSTGVGQHQMWAAQFYKYKRPRQWLTSGGLGAMGFGLPAAIGAAVANPGAVVVDIDGDGSFIMNVQELATIRVENLPVKILLLNNQHLGMVVQWEDRFYKSNRAHTYLGDPSSESEIFPNMLKFADACGIPAARVTKKEELRAAIQRMLDTPGPYLLDVIVPHQEHVLPMIPSNGSFKDVITEGDGRTRY
modifications: ALS1 variant P178S A186V
- Km (G. max ALS1 protein [1]): 21 mM
- kcat (G. max ALS1 protein [1]): 0.45 s⁻¹
- Substrate specificity ratio (Rf) (G. max ALS1 protein [2]): 29.0

B2: GM-ALS_K237F: Glycine Max ALS1 variant with a K→F mutation at position 237 (protein)
chain: MAATASRTTRFSSSSSHPTFPKRITRSTLPLSHQTLTKPNHALKIKCSISKPPTAAPFTKEAPTTEPFVSRFASGEPRKGADILVEALERQGVTTVFAYPGGASMEIHQALTRSAAIRNVLPRHEQGGVFAAEGYARSSGLPGVCIATSGPGATNLVSGLADALMDSVPVVAITGQVPRRMIGTDAFQETPIVEVSRSITKHNYLILDVDDIPRVVAEAFFVATSGRPGPVLIDIPFDVQQQLAVPNWDEPVNLPGYLARLPRPPAEAQLEHIVRLIMEAQKPVLYVGGGSLNSSAELRRFVELTGIPVASTLMGLGTFPIGDEYSLQMLGMHGTVYANYAVDNSDLLLAFGVRFDDRVTGKLEAFASRAKIVHIDIDSAEIGKNKQAHVSVCADLKLALKGINMILEEKGVEGKFDLGGWREEINVQKHKFPLGYKTFQDAISPQHAIEVLDELTNGDAIVSTGVGQHQMWAAQFYKYKRPRQWLTSGGLGAMGFGLPAAIGAAVANPGAVVVDIDGDGSFIMNVQELATIRVENLPVKILLLNNQHLGMVVQWEDRFYKSNRAHTYLGDPSSESEIFPNMLKFADACGIPAARVTKKEELRAAIQRMLDTPGPYLLDVIVPHQEHVLPMIPSNGSFKDVITEGDGRTRY
modifications: ALS1 variant K237F
- Km (G. max ALS1 protein [1]): 27 mM
- kcat (G. max ALS1 protein [1]): 2.17 s⁻¹
- Substrate specificity ratio (Rf) (G. max ALS1 protein [2]): 100.0

B3: GM-ALS_P178S_F559D: Glycine Max ALS1 with P→S at position 178 and F→D at position 559 (protein)
chain: MAATASRTTRFSSSSSHPTFPKRITRSTLPLSHQTLTKPNHALKIKCSISKPPTAAPFTKEAPTTEPFVSRFASGEPRKGADILVEALERQGVTTVFAYPGGASMEIHQALTRSAAIRNVLPRHEQGGVFAAEGYARSSGLPGVCIATSGPGATNLVSGLADALMDSVPVVAITGQVSRRMIGTDAFQETPIVEVSRSITKHNYLILDVDDIPRVVAEAFFVATSGRPGPVLIDIPKDVQQQLAVPNWDEPVNLPGYLARLPRPPAEAQLEHIVRLIMEAQKPVLYVGGGSLNSSAELRRFVELTGIPVASTLMGLGTFPIGDEYSLQMLGMHGTVYANYAVDNSDLLLAFGVRFDDRVTGKLEAFASRAKIVHIDIDSAEIGKNKQAHVSVCADLKLALKGINMILEEKGVEGKFDLGGWREEINVQKHKFPLGYKTFQDAISPQHAIEVLDELTNGDAIVSTGVGQHQMWAAQFYKYKRPRQWLTSGGLGAMGFGLPAAIGAAVANPGAVVVDIDGDGSFIMNVQELATIRVENLPVKILLLNNQHLGMVVQWEDRDYKSNRAHTYLGDPSSESEIFPNMLKFADACGIPAARVTKKEELRAAIQRMLDTPGPYLLDVIVPHQEHVLPMIPSNGSFKDVITEGDGRTRY
modifications: ALS1 variant P178S F559D
- Km (G. max ALS1 protein [1]): 40 mM
- kcat (G. max ALS1 protein [1]): 0.833 s⁻¹
- Substrate specificity ratio (Rf) (G. max ALS1 protein [2]): 89.0

B4: GM-ALS_P178S_D357N: Glycine Max ALS1 with P→S at position 178 and D→N at position 357 (protein)
chain: MAATASRTTRFSSSSSHPTFPKRITRSTLPLSHQTLTKPNHALKIKCSISKPPTAAPFTKEAPTTEPFVSRFASGEPRKGADILVEALERQGVTTVFAYPGGASMEIHQALTRSAAIRNVLPRHEQGGVFAAEGYARSSGLPGVCIATSGPGATNLVSGLADALMDSVPVVAITGQVSRRMIGTDAFQETPIVEVSRSITKHNYLILDVDDIPRVVAEAFFVATSGRPGPVLIDIPKDVQQQLAVPNWDEPVNLPGYLARLPRPPAEAQLEHIVRLIMEAQKPVLYVGGGSLNSSAELRRFVELTGIPVASTLMGLGTFPIGDEYSLQMLGMHGTVYANYAVDNSDLLLAFGVRFDNRVTGKLEAFASRAKIVHIDIDSAEIGKNKQAHVSVCADLKLALKGINMILEEKGVEGKFDLGGWREEINVQKHKFPLGYKTFQDAISPQHAIEVLDELTNGDAIVSTGVGQHQMWAAQFYKYKRPRQWLTSGGLGAMGFGLPAAIGAAVANPGAVVVDIDGDGSFIMNVQELATIRVENLPVKILLLNNQHLGMVVQWEDRFYKSNRAHTYLGDPSSESEIFPNMLKFADACGIPAARVTKKEELRAAIQRMLDTPGPYLLDVIVPHQEHVLPMIPSNGSFKDVITEGDGRTRY
modifications: ALS1 variant P178S D357N
- Km (G. max ALS1 protein [1]): 4 mM
- kcat (G. max ALS1 protein [1]): 1.82 s⁻¹
- Substrate specificity ratio (Rf) (G. max ALS1 protein [2]): 49.0

B5: GM-ALS_A186D: Glycine Max ALS1 variant with a A→D mutation at position 186 (protein)
chain: MAATASRTTRFSSSSSHPTFPKRITRSTLPLSHQTLTKPNHALKIKCSISKPPTAAPFTKEAPTTEPFVSRFASGEPRKGADILVEALERQGVTTVFAYPGGASMEIHQALTRSAAIRNVLPRHEQGGVFAAEGYARSSGLPGVCIATSGPGATNLVSGLADALMDSVPVVAITGQVPRRMIGTDDFQETPIVEVSRSITKHNYLILDVDDIPRVVAEAFFVATSGRPGPVLIDIPKDVQQQLAVPNWDEPVNLPGYLARLPRPPAEAQLEHIVRLIMEAQKPVLYVGGGSLNSSAELRRFVELTGIPVASTLMGLGTFPIGDEYSLQMLGMHGTVYANYAVDNSDLLLAFGVRFDDRVTGKLEAFASRAKIVHIDIDSAEIGKNKQAHVSVCADLKLALKGINMILEEKGVEGKFDLGGWREEINVQKHKFPLGYKTFQDAISPQHAIEVLDELTNGDAIVSTGVGQHQMWAAQFYKYKRPRQWLTSGGLGAMGFGLPAAIGAAVANPGAVVVDIDGDGSFIMNVQELATIRVENLPVKILLLNNQHLGMVVQWEDRFYKSNRAHTYLGDPSSESEIFPNMLKFADACGIPAARVTKKEELRAAIQRMLDTPGPYLLDVIVPHQEHVLPMIPSNGSFKDVITEGDGRTRY
modifications: ALS1 variant A186D
- Km (G. max ALS1 protein [1]): 35 mM
- kcat (G. max ALS1 protein [1]): 0.15 s⁻¹
- Substrate specificity ratio (Rf) (G. max ALS1 protein [2]): 21.7

B6: GM-ALS_K237Q: Glycine Max ALS1 variant with a K→Q mutation at position 237 (protein)
chain: MAATASRTTRFSSSSSHPTFPKRITRSTLPLSHQTLTKPNHALKIKCSISKPPTAAPFTKEAPTTEPFVSRFASGEPRKGADILVEALERQGVTTVFAYPGGASMEIHQALTRSAAIRNVLPRHEQGGVFAAEGYARSSGLPGVCIATSGPGATNLVSGLADALMDSVPVVAITGQVPRRMIGTDAFQETPIVEVSRSITKHNYLILDVDDIPRVVAEAFFVATSGRPGPVLIDIPQDVQQQLAVPNWDEPVNLPGYLARLPRPPAEAQLEHIVRLIMEAQKPVLYVGGGSLNSSAELRRFVELTGIPVASTLMGLGTFPIGDEYSLQMLGMHGTVYANYAVDNSDLLLAFGVRFDDRVTGKLEAFASRAKIVHIDIDSAEIGKNKQAHVSVCADLKLALKGINMILEEKGVEGKFDLGGWREEINVQKHKFPLGYKTFQDAISPQHAIEVLDELTNGDAIVSTGVGQHQMWAAQFYKYKRPRQWLTSGGLGAMGFGLPAAIGAAVANPGAVVVDIDGDGSFIMNVQELATIRVENLPVKILLLNNQHLGMVVQWEDRFYKSNRAHTYLGDPSSESEIFPNMLKFADACGIPAARVTKKEELRAAIQRMLDTPGPYLLDVIVPHQEHVLPMIPSNGSFKDVITEGDGRTRY
modifications: ALS1 variant K237Q
- Km (G. max ALS1 protein [1]): 20 mM
- kcat (G. max ALS1 protein [1]): 1.35 s⁻¹
- Substrate specificity ratio (Rf) (G. max ALS1 protein [2]): 100.0

B7: GM-ALS_A186V: Glycine Max ALS1 variant with a A→V mutation at position 186 (protein)
chain: MAATASRTTRFSSSSSHPTFPKRITRSTLPLSHQTLTKPNHALKIKCSISKPPTAAPFTKEAPTTEPFVSRFASGEPRKGADILVEALERQGVTTVFAYPGGASMEIHQALTRSAAIRNVLPRHEQGGVFAAEGYARSSGLPGVCIATSGPGATNLVSGLADALMDSVPVVAITGQVPRRMIGTDVFQETPIVEVSRSITKHNYLILDVDDIPRVVAEAFFVATSGRPGPVLIDIPKDVQQQLAVPNWDEPVNLPGYLARLPRPPAEAQLEHIVRLIMEAQKPVLYVGGGSLNSSAELRRFVELTGIPVASTLMGLGTFPIGDEYSLQMLGMHGTVYANYAVDNSDLLLAFGVRFDDRVTGKLEAFASRAKIVHIDIDSAEIGKNKQAHVSVCADLKLALKGINMILEEKGVEGKFDLGGWREEINVQKHKFPLGYKTFQDAISPQHAIEVLDELTNGDAIVSTGVGQHQMWAAQFYKYKRPRQWLTSGGLGAMGFGLPAAIGAAVANPGAVVVDIDGDGSFIMNVQELATIRVENLPVKILLLNNQHLGMVVQWEDRFYKSNRAHTYLGDPSSESEIFPNMLKFADACGIPAARVTKKEELRAAIQRMLDTPGPYLLDVIVPHQEHVLPMIPSNGSFKDVITEGDGRTRY
modifications: ALS1 variant A186V
- Km (G. max ALS1 protein [1]): 14 mM
- kcat (G. max ALS1 protein [1]): 0.467 s⁻¹
- Substrate specificity ratio (Rf) (G. max ALS1 protein [2]): 40.3
